Values joined by “and” are separate entries in the source; they are usually repeats but may differ in a detail not shown here. Identical values can stand only once.
Molecular target: the molecule itself
Test: cross-linking

B1: Plasmodium falciparum tRNA-splicing endonuclease PfTSEN1 (enzyme, UniProt A0A144A1E9 1-220, looked up)
chain: MKIIYEFKKEYYEIILNENNADDNVIDLFEKNTNKCNIEIKPYDDINSDLLDFDQFKMFNIDKDDIKKKNEDKKDEDRIKYILDKESYNNSIDKLNDNSCDESCYITDDELCKQINNPFDNTYNNKFVVKYKEYFEENSFIVKKGDIYGADFLLYITEQKYAHSLYAVYIIYKHYILRDLIRILRVSHSIKKKVILILWNELNCFNISDTLVYIKSYKYK
stoichiometry N: 2 and 3 and 4

— article doi:10.1101/2024.06.07.597859 (bioRxiv, 2024)
